Reference: PMC5778602
Read-outs that look alike come from different tables or passages of the source.

What was measured:
Experiment in all cases: ITC
CstF-64 RRM = biological target: T1, CstF-64 RRM (Homo sapiens, UniProt P33240 16-94)
T1 sequence: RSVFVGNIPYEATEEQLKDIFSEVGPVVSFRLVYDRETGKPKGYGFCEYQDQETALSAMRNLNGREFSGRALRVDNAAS

[1] = biological target: T2, CstF-50;CstF-77ΔN;CstF-64RH (Homo sapiens;Homo sapiens;Homo sapiens, UniProt Q05048;Q12996;P33240 1-431;241-717;1-199, |del1-240|)
T2 sequence 1: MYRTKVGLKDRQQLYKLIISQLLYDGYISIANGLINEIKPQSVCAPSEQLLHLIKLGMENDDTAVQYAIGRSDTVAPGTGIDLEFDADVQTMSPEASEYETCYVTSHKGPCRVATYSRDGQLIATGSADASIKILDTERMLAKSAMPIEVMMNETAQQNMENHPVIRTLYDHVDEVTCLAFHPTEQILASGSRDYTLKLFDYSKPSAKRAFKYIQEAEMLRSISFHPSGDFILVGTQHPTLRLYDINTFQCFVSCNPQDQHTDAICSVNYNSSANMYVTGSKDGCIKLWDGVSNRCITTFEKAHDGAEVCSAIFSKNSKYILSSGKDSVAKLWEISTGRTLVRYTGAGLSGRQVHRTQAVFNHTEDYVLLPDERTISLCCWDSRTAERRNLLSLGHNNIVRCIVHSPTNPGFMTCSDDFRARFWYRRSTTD
T2 sequence 2: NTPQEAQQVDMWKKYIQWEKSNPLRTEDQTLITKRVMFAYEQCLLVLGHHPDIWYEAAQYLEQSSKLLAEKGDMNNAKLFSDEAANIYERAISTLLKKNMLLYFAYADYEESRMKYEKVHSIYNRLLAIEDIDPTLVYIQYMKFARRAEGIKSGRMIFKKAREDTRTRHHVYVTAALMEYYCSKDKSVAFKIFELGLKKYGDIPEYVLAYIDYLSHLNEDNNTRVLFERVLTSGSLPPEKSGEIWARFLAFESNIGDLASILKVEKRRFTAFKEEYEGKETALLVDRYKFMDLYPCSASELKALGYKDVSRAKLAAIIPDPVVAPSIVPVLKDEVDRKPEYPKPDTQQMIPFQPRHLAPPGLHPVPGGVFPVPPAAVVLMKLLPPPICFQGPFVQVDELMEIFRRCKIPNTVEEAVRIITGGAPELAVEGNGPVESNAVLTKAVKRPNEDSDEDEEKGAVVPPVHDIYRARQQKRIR
T2 sequence 3: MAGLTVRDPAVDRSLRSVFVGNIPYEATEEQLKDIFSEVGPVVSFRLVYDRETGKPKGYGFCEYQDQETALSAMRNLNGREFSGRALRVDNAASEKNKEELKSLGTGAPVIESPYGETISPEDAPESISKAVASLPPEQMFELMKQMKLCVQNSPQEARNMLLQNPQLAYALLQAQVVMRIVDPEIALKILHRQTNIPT

CstF-77ΔN;CstF-64RH [2] = biological target: T3, CstF-77ΔN;CstF-64RH (Homo sapiens;Homo sapiens, UniProt Q12996;P33240 241-717;1-199, del1-240|)
T3 sequence 1: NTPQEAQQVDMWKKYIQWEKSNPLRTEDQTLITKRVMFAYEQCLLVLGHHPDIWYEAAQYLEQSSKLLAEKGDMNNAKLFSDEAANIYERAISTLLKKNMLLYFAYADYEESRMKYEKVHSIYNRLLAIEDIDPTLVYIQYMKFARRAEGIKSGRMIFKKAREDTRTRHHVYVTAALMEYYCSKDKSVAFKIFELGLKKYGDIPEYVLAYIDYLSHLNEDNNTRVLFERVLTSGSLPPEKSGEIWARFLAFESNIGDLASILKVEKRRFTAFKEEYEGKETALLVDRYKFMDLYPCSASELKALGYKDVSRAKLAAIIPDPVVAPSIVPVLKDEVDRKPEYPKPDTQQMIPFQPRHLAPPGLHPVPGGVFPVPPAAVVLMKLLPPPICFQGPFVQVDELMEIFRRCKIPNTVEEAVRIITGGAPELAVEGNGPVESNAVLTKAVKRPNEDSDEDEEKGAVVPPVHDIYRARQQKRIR
T3 sequence 2: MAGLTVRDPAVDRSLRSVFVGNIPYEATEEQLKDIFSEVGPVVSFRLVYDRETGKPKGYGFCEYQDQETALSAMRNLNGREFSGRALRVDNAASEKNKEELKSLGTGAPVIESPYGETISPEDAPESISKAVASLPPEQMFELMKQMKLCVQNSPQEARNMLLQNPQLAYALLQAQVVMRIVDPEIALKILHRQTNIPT

[3] = biological target: T2, CstF-50;CstF-77ΔN;CstF-64RH; remark: listed apart in the source
[4] = biological target: T2, CstF-50;CstF-77ΔN;CstF-64RH; remark: listed apart in the source
CstF-77ΔN;CstF-64RH [5] = biological target: T3, CstF-77ΔN;CstF-64RH; remark: listed apart in the source
[6] = biological target: T2, CstF-50;CstF-77ΔN;CstF-64RH; remark: listed apart in the source
CstF-77ΔN;CstF-64RH [7] = biological target: T3, CstF-77ΔN;CstF-64RH; remark: listed apart in the source

GUGUGUGUGUGUGU (ssRNA) [GU14] gave a Kd (CstF-64 RRM) of about 2500 nM, a Kd [1] of about 120 nM and a Kd (CstF-77ΔN;CstF-64RH [2]) of about 160 nM.

In the case of GUGUGUGU (ssRNA) [GU8], the binding signal [3] is reported as about 2.5 fold tighter than GU6.

ACACACACACACAC (ssRNA) [AC14]: no binding [4].

With GUGUGUGUGU (ssRNA) [GU10] the binding result (CstF-77ΔN;CstF-64RH [5]) was “binds” and the Kd [6] was about 500 nM.

GUGUGACCCUUUUU (ssRNA) [UUUUU-containing RNA] showed a Kd (CstF-77ΔN;CstF-64RH [7]) of about 3700 nM.
